Results from patent US20190389905A1 (OREGON STATE UNIVERSITY, published 2019).
The star is where a group is joined. Biotin = O=C1N[C@H]2[C@H](CS[C@H]2CCCCC(=O)*)N1; Ahx = NCCCCCC(=O)O

How the values were obtained:
[1] = target: T1, sAniA, recombinant AniA (NGO1276) of Neisseria gonorrhoeae FA1090 lacking the N-terminal palmitoylation … (Neisseria gonorrhoeae FA1090, UniProt Q02219 19-392); test: cell-based or functional assay
T1 sequence: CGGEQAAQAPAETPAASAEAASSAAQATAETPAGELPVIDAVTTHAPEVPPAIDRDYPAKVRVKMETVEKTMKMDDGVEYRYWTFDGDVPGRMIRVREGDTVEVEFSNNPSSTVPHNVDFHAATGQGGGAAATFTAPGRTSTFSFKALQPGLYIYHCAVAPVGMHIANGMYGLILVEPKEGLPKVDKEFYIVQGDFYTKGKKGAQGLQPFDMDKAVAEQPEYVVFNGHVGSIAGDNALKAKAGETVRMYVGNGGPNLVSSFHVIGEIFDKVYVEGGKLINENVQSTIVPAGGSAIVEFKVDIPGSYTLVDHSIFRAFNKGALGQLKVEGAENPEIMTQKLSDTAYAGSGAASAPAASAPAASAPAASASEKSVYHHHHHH

[2] = target: T1, sAniA, recombinant AniA (NGO1276) of …; test: phage ELISA on sAniA-coated wells; reference is phage-displayed 12-5
Protocol: Individual wells in 96-well transparent plates (Greiner-Bio) were coated with 100 μL of 100 pg/mL of sAniA suspended in 0.1 M NaHCO₃pH 8.6 and incubated overnight at 4° C. in an airtight humidified box. After incubation, excess target solution was shaken out and wells were filled with 300 μL of blocking buffer (0.1 M NaHCO₃pH 8.6, 5 mg/mL BSA). Following 2 h incubation at 4° C., blocking buffer was removed and wells were washed six times with 200 μL of TBST (50 mM Tris-HCl pH 8.6, 150 mM NaCl, 0.5% Tween). Isolated individual phage amplifications (10¹⁰ PFU) in 100 μl of TBST were incubated at room temperature for 1 h with rocking. All wells were then cleared by shaking and washed six times with 200 μL of TBST. A solution containing Anti-M13 HRP linked-Monoclonal Antibodies (NEB) (1:5,000 dilution in blocking buffer) was distributed at 200 μL per well and incubated with rocking at room temperature for 1 h. Wells were washed six times with TBST and incubated with Turbo TMB-ELISA for 30 min with rocking at room temperature. […] Data from seven independent experiments are shown with mean and SEM

[3] = target: AniA expressed by intact N. gonorrhoeae FA1090 ΔaniA/Plac::aniA cells (Neisseria gonorrhoeae FA1090), Q02219; test: cell-based or functional assay
[4] = target: T1, sAniA, recombinant AniA (NGO1276) of …; test: biolayer interferometry (OctetRed 96): C7-3Bio on streptavidin sensors, sAniA 50-1000 nM in solution, 2:1 heterogeneous ligand model, average ± SEM of three experiments
Protocol: Streptavidin (SA) biosensors (ForteBio) were loaded with C7-3Bio peptides for 10 min. Unloaded tips were used as a control. The sAniA samples were prepared in Kinetic Buffer in concentrations of 50, 100, 500, and 1000 nM. The baseline was established for 240 s and the association and dissociation steps were performed for 500 s. Experiments were performed in three biological replicates with the curve fitting using 2:1 (Heterogeneous Ligand) model and KD value calculations were completed using Octet Data Analysis (version 9).
The BLI experiments were performed using steady state method and curve fitting of the association and dissociation responses.

Binder: H-ACNFCRLNLWGGGS-NH2 (cysteine pairing not given here) [synthetic peptide C7-3P (H-ACNFCRLNLWGGGS-NH2)]
- IC50 of inhibition of nitrite reductase activity of sAniA (DAN assay) [1]: > 105 µM

Binder: H-ACSYCRLNLWGGGS-NH2 (cysteine pairing not given here) [synthetic peptide C7-3m2 (H-ACSYCRLNLWGGGS-NH2)]
- IC50 of inhibition of nitrite reductase activity of sAniA (DAN assay) [1]: 4.81 µM

Binder: H-ACNACRLNLWGGGS-NH2 (cysteine pairing not given here) [synthetic peptide C7-3A (H-ACNACRLNLWGGGS-NH2)]
- IC50 of inhibition of nitrite reductase activity of sAniA (DAN assay) [1]: ~25.2 µM

B1: phage-displayed peptide C7-3 (CNYCRLNLW), M13 phage clone from the Ph.D.-C7C library (peptide, not shown: large carriers)
peptide: CNYCRLNLW
notes: Tested as whole phage (10^10 PFU per well) in the phage ELISA; Trp stands where the library's second Cys would be; also called phage-expressed C7-3
- fold lower relative binding in comparison to 12-5 [2]: ~2 fold

Binder: H-ACNYCRLNLWGGGS-NH2 (cysteine pairing not given here) [synthetic peptide C7-3 (H-ACNYCRLNLWGGGS-NH2)]
- IC50 of inhibition of nitrite reductase activity of sAniA (DAN assay) [1]: 10.2 µM

Binder: H-ACSYCRLNLWGGGS-NH2 (cysteine pairing not given here) [synthetic peptide C7-3m2 (H-…-NH2)]
- percent inhibition of nitrite reductase activity of intact N. gonorrhoeae cells at 0.3 mM peptide [3]: 50%
- percent inhibition of nitrite reductase activity of intact N. gonorrhoeae cells at 0.6 mM peptide [3]: 90%

Binder: H-ACNYCRLNLWGGGS-NH2 (cysteine pairing not given here) [synthetic peptide C7-3 (H-…-NH2)]
- percent inhibition of nitrite reductase activity of intact N. gonorrhoeae cells at 0.6 mM peptide [3]: 50%

B2: C7-3Bio, C7-3 biotinylated at the N-terminus (BiotinAhx-ACNYCRLNLWGGGS-NH2) (peptide)
peptide: {Biotin-Ahx}-ACNYCRLNLWGGGS-NH2
modifications: cysteine pairing not given here
notes: Immobilized on streptavidin biosensors in the BLI experiment; also called biotinylated C7-3
- IC50 of inhibition of nitrite reductase activity of AniA (DAN assay) [1]: 13.5 µM
- Kd [4]: 0.775 µM

Binder: H-ACNYSRLNLWGGGS-NH2 [synthetic peptide C7-3m1 (H-ACNYSRLNLWGGGS-NH2)]
- IC50 of inhibition of nitrite reductase activity of sAniA (DAN assay) [1]: 5.91 µM
